The results in this text go back to article doi:10.1101/2024.01.16.575832, “Heterodimerization of Endolysin Isoforms During Bacterial Infection by Staphylococcal Phage φ2638A” (bioRxiv, 2024).

Assay [1] concerns the target T1, full-length Ply2638A endolysin (PlyFL) (Staphylococcus pseudintermedius phage …, UniProt Q4ZD58 1-486).
T1 construct: Endolysin Ply2638A of Staphylococcus pseudintermedius phage φ2638A, full length (M23 endopeptidase, central amidase, C-terminal SH3b CBD; SH3b domain is residues 393-486); internal start codon TTG at Leu180 silently changed to CTC so that only the FL isoform is made; expected mass 55.5 kDa; The TTG>CTC change at Leu180 is silent (Leu to Leu); Purified as a protein without a His-tag; In the SEC of …
T1 sequence (looked up): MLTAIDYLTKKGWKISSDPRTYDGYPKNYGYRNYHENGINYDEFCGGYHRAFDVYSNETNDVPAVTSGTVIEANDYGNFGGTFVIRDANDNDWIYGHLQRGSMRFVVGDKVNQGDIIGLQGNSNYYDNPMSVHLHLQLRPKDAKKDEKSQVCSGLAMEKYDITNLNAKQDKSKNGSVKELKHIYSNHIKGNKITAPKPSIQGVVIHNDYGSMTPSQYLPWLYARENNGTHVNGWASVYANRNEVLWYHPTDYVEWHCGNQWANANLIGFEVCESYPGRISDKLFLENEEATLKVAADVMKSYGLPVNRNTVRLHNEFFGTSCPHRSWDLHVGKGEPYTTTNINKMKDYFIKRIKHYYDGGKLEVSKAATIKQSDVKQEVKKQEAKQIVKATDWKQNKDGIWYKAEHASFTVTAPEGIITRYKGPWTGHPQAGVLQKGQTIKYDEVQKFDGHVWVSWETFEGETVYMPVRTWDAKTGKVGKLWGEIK
As to the kind of experiment: SEC-MALS; 1:3 (w/w) mixture of PlyFL and PlySV at 1 mg/mL, Superdex 200 10/30, 10 mM HEPES, 150 mM NaCl, 3.4 mM EDTA, 0.005 % Tween20, pH 7.4. The following applies: both partners purified.

The target in assay [2] is T1, full-length Ply2638A endolysin (PlyFL). As to the kind of experiment: SPR; Biacore X, PlyFL immobilised by amine coupling on a CMD500L chip; analytes at 750 nM, 1 μM, 2.5 μM and 5 μM, 10 μL/min, running buffer PBS pH 7.4; steady state not attained. The note with it: both partners purified. (In SPR one partner is held on a chip, and binding of the other changes the refractive index at the surface.)

B1: Ply2638A short variant isoform (PlySV) (domain or fragment, UniProt Q4ZD58 180-486, looked up)
chain: LKHIYSNHIKGNKITAPKPSIQGVVIHNDYGSMTPSQYLPWLYARENNGTHVNGWASVYANRNEVLWYHPTDYVEWHCGNQWANANLIGFEVCESYPGRISDKLFLENEEATLKVAADVMKSYGLPVNRNTVRLHNEFFGTSCPHRSWDLHVGKGEPYTTTNINKMKDYFIKRIKHYYDGGKLEVSKAATIKQSDVKQEVKKQEAKQIVKATDWKQNKDGIWYKAEHASFTVTAPEGIITRYKGPWTGHPQAGVLQKGQTIKYDEVQKFDGHVWVSWETFEGETVYMPVRTWDAKTGKVGKLWGEIK
notes: expected mass 35.3 kDa; the C-terminal SH3b domain ends at residue 486; The first residue may be Met when translation starts at the TTG codon or in the recombinant construct (surmise); also called SV isoform; short variant (SV); source: E. coli, purified (cation exchange chromatography, SEC); also co-produced with the FL isoform from pET302_PlyWT (PlyWT), purified the same way
Turning to B1, in assay [1], the “stoichiometry N” value is 1 PlySV per PlyFL.

B2: central amidase domain of Ply2638A (Ami) (domain or fragment, UniProt Q4ZD58 180-359, looked up)
chain: LKHIYSNHIKGNKITAPKPSIQGVVIHNDYGSMTPSQYLPWLYARENNGTHVNGWASVYANRNEVLWYHPTDYVEWHCGNQWANANLIGFEVCESYPGRISDKLFLENEEATLKVAADVMKSYGLPVNRNTVRLHNEFFGTSCPHRSWDLHVGKGEPYTTTNINKMKDYFIKRIKHYYDG
notes: Endolysin Ply2638A of phage φ2638A, central N-acetylmuramoyl-L-alanine amidase domain, residues 180-359 (Leu180-Gly359); The limits are printed for the construct used in crystallisation trials; also called amidase domain alone; source: E. coli, purified (cation exchange chromatography, SEC)
For B2, in assay [2], the binding result is “binds”.

By stoichiometry N is commonly meant the number of molecules, sites or subunits per partner or assembly.
